Measurements as given in US20160340442A1 (Dana-Farber, published 2016).

Columns and labels:
MUC1-C/ECD protein = biological target: T1, MUC1-C/ECD protein (human, UniProt P15941 1098-1155); experiment: ELISA, plates coated with the MUC1-C/ECD antigen; soluble MUC1-C/ECD protein also abrogated 3D1 binding to cells
T1 construct: also called MUC1-C/ECD antigen; the antigen
T1 sequence: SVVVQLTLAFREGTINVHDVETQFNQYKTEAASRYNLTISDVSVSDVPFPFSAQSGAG

P1 = biological target: T2, P1 (human); experiment: ELISA on coated MUC1-C/ECD antigen with or without peptide (indirect)
T2 construct: Synthetic overlapping peptide of MUC1-C/ECD; also called peptide P1
T2 peptide: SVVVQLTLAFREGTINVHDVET
Procedure: (§1) Characterized of 7B8 and 3D1 antibodies. Linear epitope mapping of 7B8 and 3D1 clones was performed using three overlapping peptides spanning the entire MUC1-C/ECD region (58 amino acids) were synthesized. ELISA assays were performed using 7B8 or 3D1 purified antibodies in the presence or absence of P1, P2 or P3 peptides. […] Conformational epitope mapping of 7B8 and 3D1 was performed using eight critical individual point mutants in the MUC1-C/ECD region by ELISA. […] These findings indicate that D19 is a part of the conformational core/pocket for 3D1 binding. ZR-75-1 breast carcinoma cells were used determine 7B8 or 3D1 antibody binding in a competitive format with MUC1-C/ECD and analyzed by FLOW. […] These findings indicate that the conformational binding epitopes of 7B8 and 3D1 are different. The sequencing results for hybridoma 3D1 is shown in FIG. 50 and is discussed in greater detail below.

P3 = biological target: T3, P3 (human); experiment: as above
T3 construct: Synthetic overlapping peptide of MUC1-C/ECD; also called peptide P3
T3 peptide: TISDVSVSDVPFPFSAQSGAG
Procedure: as §1

P2 = biological target: T4, P2 (human); experiment: as above
T4 construct: Synthetic overlapping peptide of MUC1-C/ECD; also called peptide P2
T4 peptide: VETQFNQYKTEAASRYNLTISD
Procedure: as §1

B1: 441.3.3D1.D6.D11.B1.F10 (antibody, V domains shown)
VH: QVQLQQSGAELVRPGSSVKISCKTSGYAFSNFWMNWVKQRPGQGLEWIGQIYPGDGDTNYNGKFKGKATLTADKSSSTAYMQLSSLTSEASAVYFCARSYYRSAWFAYWGQGTLVSVSA
VL: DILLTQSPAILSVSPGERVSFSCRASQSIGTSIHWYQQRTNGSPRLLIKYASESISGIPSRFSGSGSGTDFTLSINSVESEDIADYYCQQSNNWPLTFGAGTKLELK
notes: Mouse hybridoma antibody; also called Anti-Muc-1; 536064-1
Question: Does B1 bind (MUC1-C/ECD protein)?
Answer: binds

Question: Does B1 bind (P1)?
Answer: no binding

Question: Does B1 bind (P3)?
Answer: no binding

Question: Does B1 bind (P2)?
Answer: no binding
